Measured values taken from patent US5459256A, “Lipophilic, aminohydrolase-activated prodrugs” (priority 1991, dated 1995).

Tests used:
Experiment in all cases: purified protein, by the assay type
Conditions in all cases: other: pH 7.4 and 37° C.
[1] = substrate: CNc1ncnc2c1ncn2[C@@H]1O[C@H](CO)C[C@@H]1F
Description: (§1) Deamination of dideoxyadenosine analogues by adenosine deaminase. Hydrolysis kinetics and 2'-F-dd-ara-I formation during the incubation of 50 μM N^6 -CH3 -2'-F-dd-ara-A (1f) with 0.7 units/mL of adenosine deaminase at 37° C. A unit of adenosine deaminase is the amount of enzyme which hydrolyzes a standard substrate (e.g., adenosine) at the rate of 1.0 μmole/min at 25° C. and pH 7.5. […] Insert: Adenosine deaminase hydrolysis kinetics for 50 μM ddA and 2'-F-dd-ara-A. The hydrolysis curve for ddA has been extrapolated from kinetics obtained with 0.07 units/mL of adenosine deaminase under identical conditions.
(§2) A 50 μl aliquot of a 10 mg/ml suspension of adenosine deaminase (adenosine aminohydrolase, EC 3.5.4.4) from calf intestinal mucosa was centrifuged at 600×g for 3 min. The residue remaining after removal of the (NH4)2 SO4 supernatant was dissolved in 0.5 ml pH 7.4 tris(hydroxymethyl)-aminomethane (Tris) buffer to give an enzyme solution of 1 mg/ml (274 units/ml). […]
(§3) Enzymatic Deamination of Adenosine Analogues. […] The decrease in substrate concentration was monitored by HPLC analysis of the resultant ultrafiltrate (see below). The ability of 2'-deoxycoformycin to inhibit deamination under the above conditions was evaluated by adding 2 μL of 1.0 mM inhibitor to diluted substrate solutions at the time of equilibration. […] Initial hydrolysis rates for each substrate concentration were measured through linear least-squares curve fitting of the concentration versus time data for reaction of the first 10% of substrate. KM and vmax values for each substrate were then determined from a graphical lineweaver-Burke plot of these initial rates (FIG. 1). […]
(§4) Concentrations of dideoxynucleosides were measured by the HPLC analysis of 100 μL aliquots of ultrafiltered samples. […] Dideoxynucleosides and deamination products were detected at the appropriate wavelength of maximum absorption with a Gilson 116 variable wavelength detector. […] Peak areas and peak heights were measured simultaneously on a Spectra-Physics SP4200 computing integrator.

[2] = substrate: Nc1ncnc2c1ncn2[C@@H]1O[C@H](CO)C[C@@H]1F
[3] = substrate: Nc1ncnc2c1ncn2[C@H]1CC[C@@H](CO)O1
Description: as §1, §2, §3, §4

[4] = substrate: OC[C@@H]1C[C@H](F)[C@H](n2cnc3c(Cl)ncnc32)O1
Description: as §1, §2, §3, §4

B1: adenosine deaminase (adenosine aminohydrolase, EC 3.5.4.4) (Bos taurus) (protein)
chain: MAQTPAFNKPKVELHVHLDGAIKPETILYYGRKRGIALPADTPEELQNIIGMDKPLSLPEFLAKFDYYMPAIAGCREAVKRIAYEFVEMKAKDGVVYVEVRYSPHLLANSKVEPIPWNQAEGDLTPDEVVSLVNQGLQEGERDFGVKVRSILCCMRHQPSWSSEVVELCKKYREQTVVAIDLAGDETIEGSSLFPGHVKAYAEAVKSGVHRTVHAGEVGSANVVKEAVDTLKTERLGHGYHTLEDATLYNRLRQENMHFEVCPWSSYLTGAWKPDTEHPVVRFKNDQVNYSLNTDDPLIFKSTLDTDYQMTKNEMGFTEEEFKRLNINAAKSSFLPEDEKKELLDLLYKAYGMPSPASAEQCL
B1 gave a Km [1] of 110 µM, a Km [2] of 330 µM and a Km [3] of 14 µM. The Km [4] was 7500 µM.
